# In article PMC9019507, “OAT10/SLC22A13 Acts as a Renal Urate Re-Absorber: Clinico-Genetic and Functional Analyses With Pharmacological Impacts” (Frontiers in Pharmacology, 2022):
# Test system: T1, O=c1[nH]c(=O)c2[nH]c(=O)[nH]c2[nH]1
# T1 construct: full-length human OAT10 wild-type, EGFP-fused (pEGFP-N1)
# Experiment: cells, lysate or membranes
# Assay type: cell-based, Homo sapiens
# Details: Cl^-
# Chain of OAT10/SLC22A13 (Homo sapiens) (chain, as listed by the source): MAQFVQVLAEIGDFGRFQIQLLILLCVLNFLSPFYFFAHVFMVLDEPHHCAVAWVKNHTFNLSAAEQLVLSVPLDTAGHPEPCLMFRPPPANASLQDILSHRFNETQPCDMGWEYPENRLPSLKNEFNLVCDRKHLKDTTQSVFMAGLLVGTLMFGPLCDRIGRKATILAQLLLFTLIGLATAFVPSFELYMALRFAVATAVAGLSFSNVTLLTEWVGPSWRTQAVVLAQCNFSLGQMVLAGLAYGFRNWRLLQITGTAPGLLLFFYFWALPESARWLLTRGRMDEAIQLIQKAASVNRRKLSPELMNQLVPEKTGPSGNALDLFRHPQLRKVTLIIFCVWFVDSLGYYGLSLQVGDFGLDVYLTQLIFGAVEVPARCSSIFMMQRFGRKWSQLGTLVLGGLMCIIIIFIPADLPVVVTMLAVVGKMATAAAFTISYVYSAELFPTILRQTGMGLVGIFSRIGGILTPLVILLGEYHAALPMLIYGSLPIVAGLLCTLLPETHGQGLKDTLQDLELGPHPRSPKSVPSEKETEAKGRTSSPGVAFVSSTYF
substance,measurement,value
OAT10/SLC22A13 (Homo sapiens),Km,558 µM
